Assay results published in publication PMC5499804.

T1: DDX21 m4 (Homo sapiens, UniProt Q9NR30 1-783, P754Y;R755E;Q757I;R758Q)
T1 sequence: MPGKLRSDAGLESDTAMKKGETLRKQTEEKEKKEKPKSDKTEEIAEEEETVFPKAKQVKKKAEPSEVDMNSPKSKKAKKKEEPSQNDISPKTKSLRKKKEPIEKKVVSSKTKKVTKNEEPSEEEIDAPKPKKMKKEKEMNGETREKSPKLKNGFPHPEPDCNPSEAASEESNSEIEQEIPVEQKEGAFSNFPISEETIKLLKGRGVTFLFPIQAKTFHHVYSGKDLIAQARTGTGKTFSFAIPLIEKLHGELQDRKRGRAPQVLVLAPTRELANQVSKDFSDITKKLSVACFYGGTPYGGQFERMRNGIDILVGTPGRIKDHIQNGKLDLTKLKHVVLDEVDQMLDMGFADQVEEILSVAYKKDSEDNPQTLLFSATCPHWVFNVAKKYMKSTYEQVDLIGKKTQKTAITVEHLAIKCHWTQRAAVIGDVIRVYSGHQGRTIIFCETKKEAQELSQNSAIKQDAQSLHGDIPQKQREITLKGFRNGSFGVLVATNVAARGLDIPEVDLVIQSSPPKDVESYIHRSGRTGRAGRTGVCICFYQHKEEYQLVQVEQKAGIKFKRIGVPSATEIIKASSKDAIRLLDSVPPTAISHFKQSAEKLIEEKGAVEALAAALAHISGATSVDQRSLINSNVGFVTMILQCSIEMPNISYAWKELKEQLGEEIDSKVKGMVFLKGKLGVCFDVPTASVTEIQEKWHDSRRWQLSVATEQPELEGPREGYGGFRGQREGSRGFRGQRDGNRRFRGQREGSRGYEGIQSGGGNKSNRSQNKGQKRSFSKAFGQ

T2: DDX21 full length (1-783) (Homo sapiens, UniProt Q9NR30 1-783)
T2 sequence: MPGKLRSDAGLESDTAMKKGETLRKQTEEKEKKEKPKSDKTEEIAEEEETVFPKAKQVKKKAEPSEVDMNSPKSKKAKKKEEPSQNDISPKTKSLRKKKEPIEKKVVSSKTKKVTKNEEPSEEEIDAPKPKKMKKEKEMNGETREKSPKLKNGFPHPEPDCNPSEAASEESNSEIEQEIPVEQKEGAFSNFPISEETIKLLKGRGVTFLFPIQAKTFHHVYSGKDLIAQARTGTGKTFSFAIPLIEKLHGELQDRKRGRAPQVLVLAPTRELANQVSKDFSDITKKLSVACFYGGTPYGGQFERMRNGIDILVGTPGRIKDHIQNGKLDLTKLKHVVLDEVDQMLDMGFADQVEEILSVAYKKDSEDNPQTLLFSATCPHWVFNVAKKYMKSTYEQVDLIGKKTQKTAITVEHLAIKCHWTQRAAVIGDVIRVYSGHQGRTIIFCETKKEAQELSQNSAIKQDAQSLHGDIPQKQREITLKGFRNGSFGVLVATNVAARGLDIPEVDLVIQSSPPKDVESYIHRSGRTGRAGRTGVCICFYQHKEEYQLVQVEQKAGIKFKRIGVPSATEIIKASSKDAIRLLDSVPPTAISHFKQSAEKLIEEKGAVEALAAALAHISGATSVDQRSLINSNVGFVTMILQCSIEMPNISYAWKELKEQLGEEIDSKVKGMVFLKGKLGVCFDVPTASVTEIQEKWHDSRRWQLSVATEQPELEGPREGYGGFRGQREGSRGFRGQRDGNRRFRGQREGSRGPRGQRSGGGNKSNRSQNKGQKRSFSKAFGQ

T3: DDX21(574-783) (Homo sapiens, UniProt Q9NR30 574-783)
T3 sequence: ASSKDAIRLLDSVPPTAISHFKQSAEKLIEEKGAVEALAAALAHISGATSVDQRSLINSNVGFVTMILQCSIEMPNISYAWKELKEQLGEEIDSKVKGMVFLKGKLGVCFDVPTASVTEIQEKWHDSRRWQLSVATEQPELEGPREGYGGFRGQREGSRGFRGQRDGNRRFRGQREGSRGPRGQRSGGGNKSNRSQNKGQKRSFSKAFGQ


How the values were obtained:
Test in all cases: MST
DDX21 m4 = biological target: T1, DDX21 m4
[1] = biological target: T2, DDX21 full length (1-783)
DDX21(574-783) [2] = biological target: T3, DDX21(574-783)
DDX21(574-783) [3] = biological target: T3, DDX21(574-783); remark: listed apart in the source

Binder	binding result (DDX21 m4)	binding result [1]	binding signal (DDX21(574-783) [2])	Kd [1] [nM]	Kd (DDX21(574-783) [3]) [nM]
GUUGCGCCGCGCGUUGCGUUUGCGCGCACG (ssRNA) [Q2-mutant]	no binding	no binding	~1000 fold less affinity than Q2 wild type		
GUUGGGGCGGGCGUUGGGUUUGGGGGGACG (structured_RNA) [Q2]				10 ± 0.7	
AGGGUGGGCCUGGGAGGGGUGGUGGCCAU (structured_RNA) [hTR(10-43)]	no binding			324 ± 7	149 ± 10
